Values of other authors in publication PMC13312411.
Read-outs that look alike come from different tables or passages of the source.

Assays:
Hsc70 (Homo sapiens) [1] = molecular target: Hsc70 (Homo sapiens) (UniProt P11142)
Hsc70 (Homo sapiens) [2] = molecular target: Hsc70 (Homo sapiens) (UniProt P11142); remark: listed apart in the source

Chain of UniProt P11142 (P11142 2-646): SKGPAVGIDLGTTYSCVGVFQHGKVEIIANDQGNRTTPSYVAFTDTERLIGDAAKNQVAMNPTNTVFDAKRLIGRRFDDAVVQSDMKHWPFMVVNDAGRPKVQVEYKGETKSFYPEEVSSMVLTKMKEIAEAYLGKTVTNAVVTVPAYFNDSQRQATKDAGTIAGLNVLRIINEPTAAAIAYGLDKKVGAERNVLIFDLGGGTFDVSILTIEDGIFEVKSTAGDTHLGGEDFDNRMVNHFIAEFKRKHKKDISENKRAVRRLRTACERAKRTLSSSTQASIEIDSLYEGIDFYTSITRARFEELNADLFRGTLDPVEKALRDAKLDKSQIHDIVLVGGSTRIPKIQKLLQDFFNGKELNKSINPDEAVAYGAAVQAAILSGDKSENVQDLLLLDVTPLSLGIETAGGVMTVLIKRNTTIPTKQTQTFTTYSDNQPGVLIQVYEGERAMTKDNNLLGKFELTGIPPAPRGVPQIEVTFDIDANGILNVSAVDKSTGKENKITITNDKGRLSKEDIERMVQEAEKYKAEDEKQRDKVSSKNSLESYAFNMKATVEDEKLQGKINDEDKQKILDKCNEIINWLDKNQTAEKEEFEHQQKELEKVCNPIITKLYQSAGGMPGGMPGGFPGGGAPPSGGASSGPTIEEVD

| Substance | Kd (Hsc70 (Homo sapiens) [1]) | Kd (Hsc70 (Homo sapiens) [2]) |
| --- | --- | --- |
| DNAJB6 JD-GF (open) JD-GF (from UniProt O75190) | 400 µM | – |
| DNAJB6 J-domain JD (from UniProt O75190) | – | 3 µM |
